Data: patent US20150152192A1 (SAMSUNG ELECTRONICS, published 2015)

T1: human Ang2 polypeptide (R&D systems; Accession #O15123; SEQ ID NO: 172) (human, UniProt O15123 19-496)
T1 construct: Bought protein; also called hAng2; human Ang2 protein
T1 sequence: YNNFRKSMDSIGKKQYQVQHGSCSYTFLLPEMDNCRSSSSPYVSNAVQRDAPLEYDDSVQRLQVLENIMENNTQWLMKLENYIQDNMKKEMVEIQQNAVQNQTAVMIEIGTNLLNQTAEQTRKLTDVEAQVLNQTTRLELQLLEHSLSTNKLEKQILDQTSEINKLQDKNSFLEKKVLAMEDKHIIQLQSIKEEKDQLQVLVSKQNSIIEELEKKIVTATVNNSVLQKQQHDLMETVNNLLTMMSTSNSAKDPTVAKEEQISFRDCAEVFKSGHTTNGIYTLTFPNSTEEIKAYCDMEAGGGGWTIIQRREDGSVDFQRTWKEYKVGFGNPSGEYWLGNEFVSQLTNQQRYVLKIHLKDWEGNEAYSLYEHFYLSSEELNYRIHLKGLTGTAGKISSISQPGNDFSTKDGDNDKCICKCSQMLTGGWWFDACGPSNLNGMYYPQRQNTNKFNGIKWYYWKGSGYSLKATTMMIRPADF

T2: Ang2 with K468 mutated with alanine, tagged with FLAG (human, UniProt O15123 19-496, limits assumed)
T2 sequence: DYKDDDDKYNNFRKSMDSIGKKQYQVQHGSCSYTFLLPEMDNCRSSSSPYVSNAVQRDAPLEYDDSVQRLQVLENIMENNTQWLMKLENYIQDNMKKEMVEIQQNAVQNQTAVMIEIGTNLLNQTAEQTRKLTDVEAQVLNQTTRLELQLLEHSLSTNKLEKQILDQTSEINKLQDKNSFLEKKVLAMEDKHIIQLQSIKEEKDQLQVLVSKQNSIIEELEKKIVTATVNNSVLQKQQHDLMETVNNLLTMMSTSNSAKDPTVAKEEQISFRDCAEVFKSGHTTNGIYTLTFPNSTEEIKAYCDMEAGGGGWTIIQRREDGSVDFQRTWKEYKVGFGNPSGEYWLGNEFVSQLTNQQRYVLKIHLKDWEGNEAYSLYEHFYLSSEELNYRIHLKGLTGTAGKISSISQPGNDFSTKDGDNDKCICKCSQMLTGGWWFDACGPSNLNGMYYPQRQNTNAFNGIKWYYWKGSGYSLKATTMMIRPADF

T3: Ang2 with F469 mutated with alanine, tagged with FLAG (human, UniProt O15123 19-496, limits assumed)
T3 sequence: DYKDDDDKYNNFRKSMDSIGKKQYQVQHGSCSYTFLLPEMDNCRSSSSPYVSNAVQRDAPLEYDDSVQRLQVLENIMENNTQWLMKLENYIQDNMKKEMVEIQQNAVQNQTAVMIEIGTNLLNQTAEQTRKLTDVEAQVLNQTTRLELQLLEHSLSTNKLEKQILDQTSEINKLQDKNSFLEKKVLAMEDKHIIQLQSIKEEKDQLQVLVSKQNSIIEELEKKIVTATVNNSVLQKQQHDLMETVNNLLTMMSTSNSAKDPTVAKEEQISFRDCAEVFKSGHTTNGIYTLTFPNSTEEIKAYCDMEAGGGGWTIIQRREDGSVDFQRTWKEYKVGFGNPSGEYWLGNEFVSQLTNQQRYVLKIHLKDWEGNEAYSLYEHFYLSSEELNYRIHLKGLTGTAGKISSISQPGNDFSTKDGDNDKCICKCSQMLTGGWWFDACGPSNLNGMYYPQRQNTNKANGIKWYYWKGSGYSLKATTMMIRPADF


Tests used:
[1] = target: T1, human Ang2 polypeptide (R&D systems; …); experiment: ELISA, antigen coated, scFv, anti-HA-HRP; 50% binding concentration (Kd)
Experimental: To measure binding of the antibodies prepared above with each antigen, ELISA was performed. A 96-well MaxiSorp™ flat-bottom plate (Nunc) was coated with 5˜20 μg/ml of human Ang2 and mouse Ang2 (Accession # NP_{—}031452) (both, R&D Systems). After that, the plate was washed five times with 0.05% (v/v) Tween-20-containing PBS and then blocked with 1% (v/v) BSA-containing PBS at a room temperature for 2 hours. The anti-Ang2 antibodies in their scFv forms prepared above were added to each well of the plate which was then allowed to react at a room temperature for 2 hours.
Thereafter, the plate was washed five times with 0.05% Tween-20-containing PBS and then, an HRP-conjugated anti-HA (HA-probe Antibody (F-7) HRP conjugated) antibody (Santacruz) diluted in 1% (v/v) BSA-containing PBS at 1:1,000 ratio (v/v) was added in the amount of 50 μl to each well to react at a room temperature for 1 hour, followed by washing five times with 0.1% (v/v) Tween-20-containing PBS. Finally, 100 μl of TMB substrate (cell signal) was added to each well of the plate to induce color development at a room temperature for 3 min and then, the reaction was ceased by the addition of 50 μl of 5N H₂SO₄ solution and OD450 values were measured on a plate reader (Molecular Devices).

[2] = target: T2, Ang2 with K468 mutated with alanine, …; experiment: ELISA, scFv coated, 250 ng FLAG-tagged Ang2 mutant, anti-FLAG-HRP
Experimental: (§1) A 96-well MaxiSorp™ flat-bottom plate (Nunc) was coated with 50 μl of the anti-Ang2 scFv selected above. After that, the plate was washed five times with 0.05% (v/v) Tween-20-containing PBS and then blocked with 1% (v/v) BSA-containing PBS at a room temperature for 2 hours. […] Thereafter, the plate was washed five times with 0.05% Tween-20-containing PBS and then, an HRP-conjugated anti-FLAG antibody (SIGMA) diluted in 1% (v/v) BSA-containing PBS at 1:5,000 ratio (v/v) was added in the amount of 50 μl to each well to react at a room temperature for 1 hour, followed by washing five times with 0.1% (v/v) Tween-20-containing PBS.
(§2) Finally, 100 μl of TMB substrate (cell signal) was added to each well of the plate to induce color development and then, the reaction was ceased by the addition of 50 μl of 5N H₂SO₄ solution and OD450 values were measured on a plate reader (Molecular Devices).

[3] = target: T3, Ang2 with F469 mutated with alanine, …; experiment: as above
Experimental: as §1, §2

Binder | Kd [1] [nM] | Relative binding (%) with Mutant Ang2 compared to the binding with native Ang2 [2] [%] | Relative binding (%) with Mutant Ang2 compared to the binding with native Ang2 [3] [%]
SAIT-ANG-2-AB-2-E6 (scFv form) (scFv, V domains shown, scFv from a phage display library, partly purified from E. coli periplasm on Ni-NTA and detected with anti-HA) VH: EVQLLESGGGLVQTGGSLRLSCAASGFTFSDYAMSWVRQAPGKGLEWVSAIYPDSGNKYYADSVKGRFTISRDNSKNTLYLQMNSLRAEDTAVYYCARHSSDPKVKSGYYDDGMDVWGQGTLVAVSS VL: QSVLTQPPSASGTPGQRVTISCSGSSSNIGNNAVNWYQQLPGTAPKLLIYADSNRPSGVPDRFSGSKSGTSASLAISGLRSEDEADYYCGSWDYSLSGYVFGGGTKLTVLG | 9.3 | 94 | 112
SAIT-ANG-2-AB-4-F11 (scFv form) (scFv, V domains shown, scFv from a phage display library) VH: EVQLLESGGGLVQTGGSLRLSCAASGFTFSDYAMSWVRQAPGKGLEWVSSIYPDDGNTYYADSVKGRFTISRDNSKNTLYLQMNSLRAEDTAVYYCAKHPVRLNLHPMYYYYGMDVWGQGTLVTVSS VL: QSVLTQPPSASGTPGQRVTISCTGSSSNIGNNAVSWYQQLPGTAPKLLIYSDSQRPSGVPDRFSGSKSGTSASLAISGLRSEDEADYYCATWDYSLSAYVFGGGTKLTVLG | 3 | 102 | 105
SAIT-ANG-2-AB-3-D3 (scFv form) (scFv, V domains shown, scFv from a phage display library) VH: EVQLLESGGGLVQPGGSLRLSCAASGFTFSDYDMSWVRQAPGKGLEWVSGISSDDGNTYYADSVKGRFTISRDNSKNTLYLQMNSLRAEDTAVYYCARPTIDKYTLRGYYSYGMDVWGQGTLVTVSS VL: QSVLTQPPSASGTPGQRVTISCTGSSSNIGSNYVSWYQQLPGTAPKLLIYSDNKRPSGVPDRFSGSKSGTSASLAISGLRSEDEADYYCGTWDDSLNGYVFGGGTKLTVLG | 4.3 | 95.9 | 96.4
SAIT-ANG-2-AB-4-F5 (scFv form) (scFv, V domains shown, scFv from a phage display library) VH: EVQLLESGGGLVQPGGSLRLSCAASGFTFSDYDMSWVRQAPGKGLEWVSSISHGDSNKYYADSVKGRFTISRDNSKNTLYLQMNSLRAEDTAVYYCAKSSGIQESPPTYYYYGMDVWGQGTLVTVSS VL: QSVLTQPPSASGTPGQRVTISCSGSSSNIGSNAVNWYQQLPGTAPKLLIYADSNRPSGVPDRFSGSKSGTSASLAISGLRSEDEADYYCGSWDYSLSGYVFGGGTKLTVLG | 12.1 | 87.4 | 259
SAIT-ANG-2-AB-7-C9 (scFv form) (scFv, V domains shown, scFv from a phage display library) VH: EVQLLESGGGLVQPGGSLRLSCAASGFTFSNYAMSWVRQAPGKGLEWVSAISSGGGNIYYADSVKGRFTISRDNSKNTLYLQMNSLRAEDTAVYYCAKSGIQPSPPSMSSAYAMDVWGQGTLVTVSS VL: QSVLTQPPSASGTPGQRVTISCSGSSSNIGNNDVYWYQQLPGTAPKLLIYANSHRPSGVPDRFSGSKSGTSASLAISGLRSEDEADYYCGTWDYSLSGYVFGGGTKLTVLG | 3.8 | 97.3 | 89.4
SAIT-ANG-2-AB-8-A5 (scFv form) (scFv, V domains shown, scFv from a phage display library) VH: EVQLLESGGGLVQPGGSLRLSCAASGFTFSDYYMSWVRQAPGKGLEWVSGIYPSGGSTYYADSVKGRFTISRDNSKNTLYLQMNSLRAEDTAVYYCARDPSTLTYAGFDYWGQGTLVTVSS VL: QSVLTQPPSASGTPGQRVTISCSGSSSNIGNNYVTWYQQLPGTAPKLLIYADSHRPSGVPDRFSGSKSGTSASLAISGLRSEDEADYYCATWDYSLSGYVFGGGTKLTVLG | 5.3 | 101 | 102
SAIT-ANG-2-AB-4-C11 (scFv form) (scFv, V domains shown, scFv from a phage display library) VH: EVQLLESGGGLVQPGGSLRLSCAASGFTFSDYAMSWVRQAPGKGLEWVSSIYPDDGNTYYADSVKGRFTISRDNSKNTLYLQMNSLRAEDTAVYYCARHTSHHTSIDGYYYYGMDGWGQGTLVTVSS VL: QSVLTQPPSASGTPGQRVTISCTGSSSNIGNNDVSWYQQLPGTAPKLLIYSDSKRPSGVPDRFSGSKSGTSASLAISGLRSEDEADYYCGSWDYSLSGYVFGGGTKLTVLG | 4.9 | 94.8 | 102
